In patent US10479836B2, “Method for treating pulmonary hypertension with interleukin-5 receptor antibody” (University of Toyama, priority 2015, dated 2019):

T1: mouse FcγRIIb (Mus musculus, UniProt P08101)
T1 construct: purchased R&D Systems, Inc
T1 sequence (P08101 30-330): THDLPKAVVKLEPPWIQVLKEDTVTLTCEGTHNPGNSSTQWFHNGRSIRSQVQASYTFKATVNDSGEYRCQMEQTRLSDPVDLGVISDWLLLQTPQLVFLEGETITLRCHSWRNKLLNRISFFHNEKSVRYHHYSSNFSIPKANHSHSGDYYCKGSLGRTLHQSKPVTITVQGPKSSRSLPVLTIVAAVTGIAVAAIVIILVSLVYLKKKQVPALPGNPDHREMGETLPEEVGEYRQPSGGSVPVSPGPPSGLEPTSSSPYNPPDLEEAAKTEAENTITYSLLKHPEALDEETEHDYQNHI

T2: mouse FcγRIV (Mus musculus, UniProt A0A0B4J1G0)
T2 construct: purchased R&D Systems, Inc
T2 sequence (A0A0B4J1G0 21-249): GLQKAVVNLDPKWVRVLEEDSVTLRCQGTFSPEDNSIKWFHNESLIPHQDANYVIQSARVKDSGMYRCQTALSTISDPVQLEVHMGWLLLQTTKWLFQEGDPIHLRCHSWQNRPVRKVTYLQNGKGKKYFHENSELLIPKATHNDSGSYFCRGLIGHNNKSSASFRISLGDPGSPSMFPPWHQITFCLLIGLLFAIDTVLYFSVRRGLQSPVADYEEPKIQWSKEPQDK

T3: mouse FcγRIII (Mus musculus, UniProt P08508)
T3 construct: purchased R&D Systems, Inc
T3 sequence (P08508 31-261): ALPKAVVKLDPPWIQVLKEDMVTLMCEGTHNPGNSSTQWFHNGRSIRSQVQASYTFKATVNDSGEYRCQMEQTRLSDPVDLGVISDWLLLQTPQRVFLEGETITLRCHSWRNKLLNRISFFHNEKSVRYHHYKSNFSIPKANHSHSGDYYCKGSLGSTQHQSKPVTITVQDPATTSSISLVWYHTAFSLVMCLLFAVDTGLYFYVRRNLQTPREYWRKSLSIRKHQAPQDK

T4: mouse FcγRI (Mus musculus, UniProt P26151)
T4 construct: purchased R&D Systems, Inc
T4 sequence (P26151 25-404): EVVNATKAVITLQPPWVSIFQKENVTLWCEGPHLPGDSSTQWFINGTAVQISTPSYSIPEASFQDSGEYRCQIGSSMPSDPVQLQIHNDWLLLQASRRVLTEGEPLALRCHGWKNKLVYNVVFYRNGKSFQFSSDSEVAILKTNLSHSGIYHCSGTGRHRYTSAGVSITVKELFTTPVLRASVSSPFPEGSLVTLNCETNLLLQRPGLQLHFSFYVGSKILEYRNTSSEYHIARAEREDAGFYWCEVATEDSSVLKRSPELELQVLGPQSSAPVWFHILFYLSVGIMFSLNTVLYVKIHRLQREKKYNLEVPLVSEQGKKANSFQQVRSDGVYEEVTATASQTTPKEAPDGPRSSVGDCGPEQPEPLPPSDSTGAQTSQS


Legend:
[1] = system: rIL-33-induced pulmonary vascular wall thickening; assay: rIL-33-induced pulmonary arterial wall thickening, Heath-Edwards grading of lung tissue; assay type: in vivo, mouse; conditions: IL-5+/+ mice given rIL-33; intrabronchial administration on days 7 and 14; compared with PBS group; FIG. 8
Procedure: Therefore, the degree of vascular wall thickening in IL-5^+/+ mice and IL-5^V/V mice was quantitatively graded on the basis of the Heath-Edwards grading system. On days 0, 7, and 14, 400 ng of rIL-33 was administered to each mouse. On day 21, lung tissues were resected and subjected to pathological observation to conduct tissue classification on the basis of the Heath-Edwards grading system.
In this grading system, evaluation was carried out according to grade 1: medial thickening, grade 2: intimal thickening, grade 3: advanced intimal thickening and medial thickening, and grade 4; plexiform lesion in addition to advanced intimal thickening and medial thickening.
In an experimental system similar to that of Example 3, in order to confirm the inhibitory effect of an anti-IL-5 neutralizing antibody on intimal thickening and medial thickening, 100 μg of an anti-IL-5 rat monoclonal antibody (NC17) (Hitoshi et al., Int. Immunol., 1991; 3; 135-139) or a rat IgG control antibody (manufactured by Sigma-Aldrich Co., LLC) was intraperitoneally administered to each IL-5^+/+ mouse for 3 consecutive days (a total of 3 times) from two days before rIL-33 administration day. Then, on day 21, lung tissues were resected and subjected to pathological observation to conduct tissue classification on the basis of the Heath-Edwards grading system. […]

[2] = biological target: T1, mouse FcγRIIb; assay: Biacore steady state affinity for mouse FcγRIIb; assay type: binding; conditions: Biacore T-200, Steady State Affinity mode
Procedure: (§1) The various H7 chimeric antibodies prepared in Example 8 and the parent antibody H7 rat IgG2a-type antibody were evaluated for their affinity for mouse FcγR using Biacore T-200 (manufactured by GE Healthcare Japan Corp.). An anti-tetra His mouse antibody (manufactured by Qiagen N.V.) was immobilized with 8000 RU as a guideline onto CM5 sensor chip using an amine coupling kit (all manufactured by GE Healthcare Japan Corp.). The coupling buffer used was 10 mM sodium acetate (pH 4.5). His tag-fused mouse FcγRI, IIb, III, and IV proteins (all manufactured by R&D Systems, Inc.) each dissolved at 2 μg/mL in HBS-EP(+) were captured as ligands at 2 μL/min for 30 sec. Then, each antibody serially diluted into concentrations of […] was added thereto as an analyte by the multicycle method. The flow rate was 5 μL/min, and the contact time and the dissociation time were both set to a condition of 240 sec. The analysis was carried out using Biacore T200 Evaluation software on the Steady State Affinity mode. A rise in binding activity against FcγRI and FcγRIV involved in in vivo mouse effector activity was observed by the alteration of the H7 constant region from rat IgG2a type to hIgG1 type.

[3] = biological target: T2, mouse FcγRIV; assay: Biacore steady state affinity for mouse FcγRIV; assay type: binding; conditions: Biacore T-200, Steady State Affinity mode
Procedure: as §1

[4] = biological target: T3, mouse FcγRIII; assay: Biacore steady state affinity for mouse FcγRIII; assay type: binding; conditions: Biacore T-200, Steady State Affinity mode
Procedure: as §1

[5] = system: Y16 cells; assay: ADCC activity against Y16 cells with human PBMC effector cells (LDH release); assay type: cell-based, mouse; conditions: 4 hrs, 0.0001-1000 ng/mL (control antibodies 1000 ng/mL), FIG. 13
Procedure: The H7 recombinant chimeric antibodies prepared in Example 8 were evaluated for their ADCC activity against Y16 cells using frozen human peripheral blood mononuclear cells (PBMCs) (manufactured by AllCells) as effector cells. The frozen human PBMCs were shake-cultured (37° C., 5% CO2, overnight) in RPMI1640 medium containing 5% FBS. The Y16 cells (target cells) and the human PBMCs (effector cells) were washed with ADCC assay medium (RPIM1640 containing 5% dialyzed FBS) and adjusted to cell densities of 2×10^5 cells/mL and 3×10^6 cells/mL, respectively. The cells were washed twice with a medium and then suspended into cell densities of 4×10^5 cells/mL. Each chimeric antibody adjusted to a final concentration of 0.0001, 0.001, 0.01, 0.1, 1, 10, 100, or 1000 ng/mL, the target cells (2×10^4 cells/well), and the effector cells (5×10^5 cells/well) were added in this order at 50 μL/well to a 96-well U-bottom plate. The control antibodies used were the rtDNP-1 hIgG1 (DF) antibody (KM8808) and the rtDNP-1 hIgG1 (N297A) antibody (KM6161) of Example 10 adjusted to a final concentration of 1000 ng/mL. The plate was centrifuged (500 rpm, 5 min) and then left standing in an incubator (37° C., 5% CO2, 4 hrs). The plate was centrifuged (1500 rpm, 5 min) to recover a supernatant at 50 μL/well into a 96-well Flat-bottom plate (manufactured by Sumitomo Bakelite Co., Ltd.). Lactate dehydrogenase (LDH) activity in the supernatant was detected using CytoTox 96 Non-Radioactive Cytotoxicity Assay (manufactured by Promega Corp.). Absorbance at 490 nm was measured using a plate reader SPECTRA MAX 340 PC384 (manufactured by Molecular Devices, LLC). The ADCC activity (%) was calculated according to the following equation using background-corrected measurement values. Cytotoxicity=[[Absorbance of the sample]−[Absorbance derived from spontaneous release from the target cells and the effector cells]]/[[Absorbance derived from total release from the target cells]−[Absorbance derived from spontaneous release from the target cells]]

[6] = system: mouse IL-5Rα-expressing cell Y16; assay: Antigen binding activity of chimeric antibodies on Y16 cells by FCM; assay type: cell-based; conditions: 0.6-10000 ng/mL antibody, 4° C. 60 min; FIG. 12
Procedure: The chimeric antibodies prepared in Example 8 were evaluated for their antigen binding activity using a mouse-derived cell line Y16 expressing IL-5R. The Y16 cells were washed with SM (staining medium containing 2% FCS, 0.05% NaN3, and 1 mM EDTA in PBS). Then, Mouse BD Fc Block (manufactured by Becton, Dickinson and Company) was added thereto at a concentration of 5 μg/mL, and the mixture was left standing at 4° C. for 30 min. The cells were inoculated at a cell number of 1×10^5 cells/well to a 96-well U-bottom plate, and each chimeric antibody adjusted to a final concentration of 10000, 2500, 625, 156, 39, 10, 2.4, or 0.6 ng/mL was added thereto, followed by reaction at 4° C. for 60 min. The rat/human chimeric control antibodies used were rtDNP-1 hIgG1 (DF) antibody (KM8808) and rtDNP-1 hIgG1 (N297A) antibody (KM6161). The nucleotide sequences and amino acid sequences of the variable regions of each isotype control antibody are shown in SEQ ID NOs: 29 to 34. After washing of the cells with SM, Goat F(ab′)2 Anti-Human IgG PE (γ chain specific) (manufactured by Southern Biotech) diluted 500-fold with SM was added thereto, followed by reaction at 4° C. for 60 min. After washing of the cells with SM, the cells were resuspended in 50 μL of SM. Fluorescence intensity was measured by FCM (flow cytometer FACS Canto II (manufactured by Becton, Dickinson and Company)). The data was analyzed using FlowJo 7.65 (manufactured by Tomy Digital Biology Co., Ltd.) to calculate a Geomean value at each concentration.

[7] = biological target: T4, mouse FcγRI; assay: Biacore steady state affinity for mouse FcγRI; assay type: binding; conditions: Biacore T-200, Steady State Affinity mode
Procedure: as §1

| Affinity KD for mouse FcγRIIb [2] | Kd [3] | Affinity KD for mouse FcγRIII [4] | Kd [7] | Affinity KD for mouse FcγRIV [3] | Affinity KD for mouse FcγRI [7] | Molecule | pulmonary vascular wall thickening (histological scores, Heath-Edwards grading) [1] | ADCC activity against Y16 cells [5] | antigen binding activity (fluorescence intensity, Geomean) on Y16 cells [6] |
| --- | --- | --- | --- | --- | --- | --- | --- | --- | --- |
|  |  |  |  |  |  | CC#CCC(C)[C@H](O)/C=C/[C@@H]1[C@H]2C/C(=C/CCCC(=O)O)C[C@H]2C[C@H]1O (some centres unmarked) [iloprost] | evident decrease in pulmonary vascular wall thickening was observed |  |  |
| no binding | 89.5 nM | no binding | 137 nM |  |  | H7-1: core fucose-deficient rat/human chimeric antibody of anti-IL-5R rat monoclonal antibody H7, human IgG1 constant region (antibody, V domains shown) VH: EVQLQQSGAELGKPGTSVKLSCKVSGYNIKNTYIHWVNQRPGKGLEWIGRIDPANGNPIYAEKFKNKATLTADTSSNTAYMQLSQLKSDDTAIYFCAMHRGHSMGPGPYVMDAWGQGASVTVSS VL: DIQMTQSPASLSASLGETVTIECRTSEDIYNGLAWYQQKPGKSPQLLIYNANSLHTGVPSRFSGSGSGTQYSLKINSLQSEDVASYCCQQYSNYPFTFGSGTKLEIK |  | exhibited antibody concentration-dependent ADCC activity | confirmed to react equivalently |
| no binding |  | no binding |  | very weak | very weak | H7 ratIgG2a: parent anti-IL-5R rat monoclonal antibody H7, rat IgG2a type (Hitoshi et al.) (antibody, V domains shown) VH: EVQLQQSGAELGKPGTSVKLSCKVSGYNIKNTYIHWVNQRPGKGLEWIGRIDPANGNPIYAEKFKNKATLTADTSSNTAYMQLSQLKSDDTAIYFCAMHRGHSMGPGPYVMDAWGQGASVTVSS VL: DIQMTQSPASLSASLGETVTIECRTSEDIYNGLAWYQQKPGKSPQLLIYNANSLHTGVPSRFSGSGSGTQYSLKINSLQSEDVASYCCQQYSNYPFTFGSGTKLEIK |  |  |  |
| no binding |  | no binding |  | no binding | very weak | H7-3: N-linked sugar chain-deficient H7 chimeric antibody, human IgG1 (N297A), lacking ADCC activity (antibody, V domains shown) VH: EVQLQQSGAELGKPGTSVKLSCKVSGYNIKNTYIHWVNQRPGKGLEWIGRIDPANGNPIYAEKFKNKATLTADTSSNTAYMQLSQLKSDDTAIYFCAMHRGHSMGPGPYVMDAWGQGASVTVSS VL: DIQMTQSPASLSASLGETVTIECRTSEDIYNGLAWYQQKPGKSPQLLIYNANSLHTGVPSRFSGSGSGTQYSLKINSLQSEDVASYCCQQYSNYPFTFGSGTKLEIK |  | none | confirmed to react equivalently |
